Experimental data: the supplement of paper PMC10065799, “High-throughput profiling of sequence recognition by tyrosine kinases and SH2 domains using bacterial peptide display” (eLife, 2023)

How the values were obtained:
Hck = Hck (UniProt P08631); assay: phosphorylation enrichment, bacterial display (enrichment ratio); higher = better substrate or ligand; peptides without Tyr show the background
EPHB2 = EPHB2 (UniProt P29323); assay: as above
Fer (mouse) = assay: as above
Fyn = Fyn (UniProt P06241); assay: as above
Sequence of Fyn (P06241 whole entry, looked up): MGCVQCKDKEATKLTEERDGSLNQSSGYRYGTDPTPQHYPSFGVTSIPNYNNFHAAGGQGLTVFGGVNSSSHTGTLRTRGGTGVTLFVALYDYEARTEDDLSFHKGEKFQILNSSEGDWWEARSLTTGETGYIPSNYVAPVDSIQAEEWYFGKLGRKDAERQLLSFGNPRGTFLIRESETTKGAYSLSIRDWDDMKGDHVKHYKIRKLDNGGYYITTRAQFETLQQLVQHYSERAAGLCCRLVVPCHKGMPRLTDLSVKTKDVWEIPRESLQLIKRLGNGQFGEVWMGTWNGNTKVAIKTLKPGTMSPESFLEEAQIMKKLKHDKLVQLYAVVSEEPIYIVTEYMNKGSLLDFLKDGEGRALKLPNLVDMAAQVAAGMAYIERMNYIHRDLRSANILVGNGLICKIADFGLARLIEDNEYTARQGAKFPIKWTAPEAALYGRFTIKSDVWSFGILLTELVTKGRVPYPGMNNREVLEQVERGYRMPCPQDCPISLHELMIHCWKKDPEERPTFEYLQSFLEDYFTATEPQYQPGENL

EPHB1 = EPHB1 (UniProt P54762); assay: as above
Fes = Fes (UniProt P07332); assay: as above
AncSZ = assay: as above
FGFR1 = FGFR1 (UniProt P11362); assay: as above
Sequence of FGFR1 (P11362 whole entry, looked up): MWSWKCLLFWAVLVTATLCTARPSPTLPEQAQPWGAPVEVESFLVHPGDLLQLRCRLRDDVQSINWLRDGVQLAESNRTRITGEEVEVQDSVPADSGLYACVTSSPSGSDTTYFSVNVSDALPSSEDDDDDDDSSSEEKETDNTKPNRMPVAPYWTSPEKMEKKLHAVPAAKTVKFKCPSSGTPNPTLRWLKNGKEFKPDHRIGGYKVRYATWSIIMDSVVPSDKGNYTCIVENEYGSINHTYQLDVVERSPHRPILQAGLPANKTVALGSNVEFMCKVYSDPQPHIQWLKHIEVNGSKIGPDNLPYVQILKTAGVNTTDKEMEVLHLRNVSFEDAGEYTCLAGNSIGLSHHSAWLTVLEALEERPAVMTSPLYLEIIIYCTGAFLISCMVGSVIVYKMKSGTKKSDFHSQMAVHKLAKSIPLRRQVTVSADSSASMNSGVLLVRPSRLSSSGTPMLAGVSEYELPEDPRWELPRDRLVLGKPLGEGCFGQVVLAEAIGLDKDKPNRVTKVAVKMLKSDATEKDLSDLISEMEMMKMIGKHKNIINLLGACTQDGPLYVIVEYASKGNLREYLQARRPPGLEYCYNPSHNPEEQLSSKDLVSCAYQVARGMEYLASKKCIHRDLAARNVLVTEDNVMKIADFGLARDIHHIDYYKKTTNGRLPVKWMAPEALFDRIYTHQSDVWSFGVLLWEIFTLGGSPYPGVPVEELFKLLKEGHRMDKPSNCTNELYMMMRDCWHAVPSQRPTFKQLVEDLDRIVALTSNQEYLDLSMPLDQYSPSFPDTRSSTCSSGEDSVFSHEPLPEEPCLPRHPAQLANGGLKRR

c-Abl (mouse) = assay: as above
FGFR3 = FGFR3 (UniProt P22607); assay: as above
Sequence of FGFR3 (P22607 whole entry, looked up): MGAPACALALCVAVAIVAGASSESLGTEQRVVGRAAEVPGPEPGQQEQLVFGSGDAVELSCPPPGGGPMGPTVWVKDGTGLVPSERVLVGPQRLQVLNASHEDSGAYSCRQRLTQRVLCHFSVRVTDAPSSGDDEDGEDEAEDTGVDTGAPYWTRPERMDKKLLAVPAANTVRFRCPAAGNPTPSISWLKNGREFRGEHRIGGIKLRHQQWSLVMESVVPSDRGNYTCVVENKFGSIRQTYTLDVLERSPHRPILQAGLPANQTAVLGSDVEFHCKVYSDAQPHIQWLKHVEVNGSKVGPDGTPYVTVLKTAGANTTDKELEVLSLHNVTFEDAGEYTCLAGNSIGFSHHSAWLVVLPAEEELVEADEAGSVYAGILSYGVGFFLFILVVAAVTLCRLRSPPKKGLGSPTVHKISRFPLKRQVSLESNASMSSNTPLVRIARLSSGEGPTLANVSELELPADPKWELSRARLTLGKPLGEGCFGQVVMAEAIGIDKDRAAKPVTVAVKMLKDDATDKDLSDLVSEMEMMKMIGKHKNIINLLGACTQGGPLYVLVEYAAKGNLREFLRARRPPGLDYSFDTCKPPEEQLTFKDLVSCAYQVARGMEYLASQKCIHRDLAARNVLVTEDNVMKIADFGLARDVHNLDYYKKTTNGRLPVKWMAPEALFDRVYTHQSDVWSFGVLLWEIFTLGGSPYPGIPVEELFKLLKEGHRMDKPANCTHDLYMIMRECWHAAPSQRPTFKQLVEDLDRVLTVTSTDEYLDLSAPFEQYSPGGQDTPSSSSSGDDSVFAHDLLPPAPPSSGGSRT

Jak2 = Jak2 (UniProt O60674); assay: as above
Sequence of Jak2 (O60674 whole entry, looked up): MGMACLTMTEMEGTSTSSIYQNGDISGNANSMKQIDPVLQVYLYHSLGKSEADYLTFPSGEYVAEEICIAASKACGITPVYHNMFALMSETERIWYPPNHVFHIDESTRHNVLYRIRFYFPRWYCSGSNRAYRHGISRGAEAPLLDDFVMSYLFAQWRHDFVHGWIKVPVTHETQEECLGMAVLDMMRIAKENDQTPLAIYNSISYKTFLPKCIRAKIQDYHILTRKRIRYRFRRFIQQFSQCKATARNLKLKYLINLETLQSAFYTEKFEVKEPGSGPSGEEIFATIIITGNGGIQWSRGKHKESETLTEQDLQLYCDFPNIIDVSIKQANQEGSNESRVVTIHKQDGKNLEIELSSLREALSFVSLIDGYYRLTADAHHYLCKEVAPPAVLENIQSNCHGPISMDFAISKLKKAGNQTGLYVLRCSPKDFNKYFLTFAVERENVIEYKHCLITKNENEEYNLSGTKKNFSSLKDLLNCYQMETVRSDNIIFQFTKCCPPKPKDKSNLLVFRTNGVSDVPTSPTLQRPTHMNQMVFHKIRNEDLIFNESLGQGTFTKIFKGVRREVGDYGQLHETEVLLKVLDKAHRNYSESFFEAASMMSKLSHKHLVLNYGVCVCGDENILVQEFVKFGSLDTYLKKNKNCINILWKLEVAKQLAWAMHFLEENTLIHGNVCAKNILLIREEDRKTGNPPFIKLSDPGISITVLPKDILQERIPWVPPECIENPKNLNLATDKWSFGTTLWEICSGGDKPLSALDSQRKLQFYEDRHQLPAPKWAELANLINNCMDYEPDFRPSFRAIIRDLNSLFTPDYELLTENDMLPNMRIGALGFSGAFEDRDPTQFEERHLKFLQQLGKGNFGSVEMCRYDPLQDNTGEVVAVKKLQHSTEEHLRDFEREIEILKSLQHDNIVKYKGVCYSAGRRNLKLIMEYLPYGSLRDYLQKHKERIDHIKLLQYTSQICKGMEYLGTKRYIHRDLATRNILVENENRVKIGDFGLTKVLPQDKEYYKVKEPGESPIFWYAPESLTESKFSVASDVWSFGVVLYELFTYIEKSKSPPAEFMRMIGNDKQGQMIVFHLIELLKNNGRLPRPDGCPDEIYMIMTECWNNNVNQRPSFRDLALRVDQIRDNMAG

c-Src = assay: as above
MERTK = MERTK (UniProt Q12866); assay: as above
Sequence of MERTK (Q12866 whole entry, looked up): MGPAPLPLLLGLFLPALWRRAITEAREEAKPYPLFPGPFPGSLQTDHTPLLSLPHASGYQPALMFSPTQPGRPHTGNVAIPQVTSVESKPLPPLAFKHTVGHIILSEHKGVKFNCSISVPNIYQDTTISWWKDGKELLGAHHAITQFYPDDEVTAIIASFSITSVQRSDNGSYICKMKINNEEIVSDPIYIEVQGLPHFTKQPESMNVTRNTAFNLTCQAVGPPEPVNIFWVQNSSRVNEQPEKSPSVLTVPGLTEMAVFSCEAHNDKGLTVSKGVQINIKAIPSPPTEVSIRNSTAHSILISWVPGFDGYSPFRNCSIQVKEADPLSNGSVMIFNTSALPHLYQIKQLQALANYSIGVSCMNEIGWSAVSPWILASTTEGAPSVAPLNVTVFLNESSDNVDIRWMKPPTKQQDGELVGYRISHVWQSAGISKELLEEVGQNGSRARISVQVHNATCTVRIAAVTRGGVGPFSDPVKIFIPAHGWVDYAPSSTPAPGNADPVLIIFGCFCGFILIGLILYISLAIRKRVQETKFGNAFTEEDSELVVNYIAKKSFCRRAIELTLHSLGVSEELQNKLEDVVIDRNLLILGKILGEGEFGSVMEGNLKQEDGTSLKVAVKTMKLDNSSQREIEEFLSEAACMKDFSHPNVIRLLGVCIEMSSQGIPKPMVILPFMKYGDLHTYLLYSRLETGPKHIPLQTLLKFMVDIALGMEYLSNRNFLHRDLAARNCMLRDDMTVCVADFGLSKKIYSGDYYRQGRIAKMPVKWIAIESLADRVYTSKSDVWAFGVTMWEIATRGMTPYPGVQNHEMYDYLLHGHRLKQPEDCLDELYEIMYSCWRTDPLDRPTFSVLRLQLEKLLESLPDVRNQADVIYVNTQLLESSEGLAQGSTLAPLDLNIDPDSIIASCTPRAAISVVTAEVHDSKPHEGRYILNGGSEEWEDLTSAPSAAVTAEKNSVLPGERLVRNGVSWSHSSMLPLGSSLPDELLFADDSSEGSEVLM

c-Src SH2 = assay: SH2 binding enrichment of the phosphorylated peptide, bacterial display (enrichment ratio); higher = better substrate or ligand; peptides without Tyr show the background
SHP2-C SH2 = assay: as above
Grb2 SH2 = Grb2 SH2 (UniProt P62993); assay: as above
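Wherever SH2 binding enrichment of the phosphorylated peptide, bacterial display is given: peptide library displayed on the E. coli surface as eCPX fusions, selected cells deep-sequenced, score is each peptide's frequency after selection divided by its frequency in the input.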
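Wherever phosphorylation enrichment, bacterial display is given: 11-residue human phosphosite peptides and single-mutation variants displayed on the E. coli surface, counted by deep sequencing, each peptide's frequency after selection divided by its frequency in the unselected input library; frequency after pTyr selection over input frequency; kinase dosed for 20-30% of maximal phosphorylation in three min.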

Sequence of Hck (P08631 whole entry, looked up): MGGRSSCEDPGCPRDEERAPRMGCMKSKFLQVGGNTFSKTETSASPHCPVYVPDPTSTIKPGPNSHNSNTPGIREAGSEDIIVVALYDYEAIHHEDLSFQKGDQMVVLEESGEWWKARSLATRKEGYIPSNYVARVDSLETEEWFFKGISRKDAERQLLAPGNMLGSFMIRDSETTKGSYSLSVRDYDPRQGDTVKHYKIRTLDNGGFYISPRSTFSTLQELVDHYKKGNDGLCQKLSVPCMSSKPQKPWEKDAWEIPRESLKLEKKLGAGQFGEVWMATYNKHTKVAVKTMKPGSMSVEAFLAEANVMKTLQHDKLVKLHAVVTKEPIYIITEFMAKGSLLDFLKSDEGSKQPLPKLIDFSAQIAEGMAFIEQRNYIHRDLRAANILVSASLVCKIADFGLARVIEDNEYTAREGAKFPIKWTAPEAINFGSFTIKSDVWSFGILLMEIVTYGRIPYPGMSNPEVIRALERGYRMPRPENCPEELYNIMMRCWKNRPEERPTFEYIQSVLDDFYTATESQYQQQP

Row | Sequence | SH2 binding enrichment (c-Src SH2) | SH2 binding enrichment (SHP2-C SH2) | SH2 binding enrichment (Grb2 SH2) | phosphorylation enrichment (Hck) | phosphorylation enrichment (EPHB2) | phosphorylation enrichment (Fer (mouse)) | phosphorylation enrichment (Fyn) | phosphorylation enrichment (EPHB1) | phosphorylation enrichment (Fes) | phosphorylation enrichment (AncSZ) | phosphorylation enrichment (FGFR1) | phosphorylation enrichment (c-Abl (mouse)) | phosphorylation enrichment (FGFR3) | phosphorylation enrichment (Jak2) | phosphorylation enrichment (c-Src) | phosphorylation enrichment (MERTK)
1 | ASMAKYFASGI [ACADSB_Y372_E376G_YF] | 0.445 | 0.86 | 1.01 | 0.404 | 0.517 | 0.374 | 0.386 | 0.339 | 0.79 | 0.544 | 0.424 | 0.574 | 0.441 | 0.566 | 0.386 | 0.407
2 | ASMAKYYASGI [ACADSB_Y372_E376G] | 0.466 | 0.595 | 0.739 | 0.434 | 0.556 | 0.473 | 0.451 | 0.327 | 0.653 | 0.71 | 0.36 | 0.851 | 0.568 | 0.604 | 0.444 | 0.518
3 | ATHSGYRLNDY [CLDN14_Y233] | 0.49 | 0.623 | 0.709 | 0.397 | 0.491 | 0.395 | 0.389 | 0.518 | 0.739 | 0.568 | 0.503 | 0.556 | 0.491 | 0.706 | 0.493 | 0.393
4 | AVLSLYASGCT [ACTA2_Y145_R149C] | 0.379 | 0.547 | 0.861 | 0.634 | 0.658 | 0.576 | 0.538 | 0.825 | 1.39 | 1.2 | 0.512 | 0.965 | 0.811 | 1.2 | 0.46 | 0.432
5 | CASQLYPRHKH [DCTN4_Y263] | 0.916 | 0.865 | 0.975 | 0.483 | 0.464 | 0.44 | 0.38 | 0.43 | 0.928 | 0.673 | 0.533 | 0.807 | 0.639 | 1.02 | 0.405 | 0.428
6 | CETMEYLESKQ [BTK_Y511_A508T] | 0.427 | 0.555 | 0.63 | 0.677 | 0.734 | 0.705 | 0.578 | 0.737 | 1.56 | 1.6 | 0.688 | 0.98 | 0.966 | 1.43 | 0.531 | 0.527
7 | CHKRTYKVTGL | 1.07 | 0.898 | 1.13 | 0.401 | 0.357 | 0.398 | 0.417 | 0.405 | 0.667 | 0.587 | 0.362 | 0.564 | 0.465 | 0.657 | 0.455 | 0.375
8 | CTHDLYMFMRE [FGFR3_Y724_I726F] | 0.436 | 0.636 | 0.71 | 1.06 | 1.04 | 0.994 | 0.584 | 2.23 | 1.56 | 1.43 | 1.76 | 0.992 | 1.45 | 1.34 | 2.37 | 1.9

Continued, in another order:

Row | SH2 binding enrichment (c-Src SH2) | SH2 binding enrichment (SHP2-C SH2) | SH2 binding enrichment (Grb2 SH2) | Sequence | phosphorylation enrichment (Hck) | phosphorylation enrichment (EPHB2) | phosphorylation enrichment (Fer (mouse)) | phosphorylation enrichment (Fyn) | phosphorylation enrichment (EPHB1) | phosphorylation enrichment (Fes) | phosphorylation enrichment (AncSZ) | phosphorylation enrichment (FGFR1) | phosphorylation enrichment (c-Abl (mouse)) | phosphorylation enrichment (FGFR3) | phosphorylation enrichment (Jak2) | phosphorylation enrichment (c-Src) | phosphorylation enrichment (MERTK)
9 | 0.796 | 0.837 | 0.912 | AVISVYDLVAF [PSEN1_Y256_V261F] | 7.4 | 9.61 | 16 | 8.21 | 9.68 | 2.23 | 1.37 | 0.72 | 0.887 | 0.893 | 1.08 | 5.87 | 8.85
10 | 1.52 | 1.43 | 2.19 | CITIHYNFMCN [TP53_Y234_T230I_YF] | 0.489 | 0.711 | 0.574 | 0.46 | 0.59 | 1.44 | 0.946 | 0.582 | 0.661 | 0.886 | 1.31 | 0.607 | 0.456
11 | 2.27 | 1.11 | 18.2 | CLGNQYVNVMN [SLC3A1_Y461_R456C] | 0.448 | 0.608 | 0.475 | 0.403 | 0.588 | 1.05 | 1.11 | 0.567 | 0.689 | 0.955 | 1 | 0.437 | 0.336
12 | 0.458 | 0.829 | 0.822 | CNPLRYPTIMI [OR6K6_Y160] | 0.5 | 0.758 | 0.419 | 0.524 | 0.49 | 0.962 | 0.946 | 0.584 | 0.737 | 0.84 | 0.871 | 0.464 | 0.482
13 | 1.18 | 0.622 | 0.793 | CNRADYSKLAP [GNE_Y22] | 0.459 | 0.607 | 0.485 | 0.458 | 0.613 | 0.844 | 0.749 | 0.472 | 0.556 | 0.61 | 0.621 | 0.412 | 0.609
14 | 0.531 | 0.806 | 0.845 | CNSFQYGGGGG [NPPA_Y151_R150Q] | 0.497 | 0.452 | 0.512 | 0.436 | 0.501 | 0.919 | 0.794 | 0.409 | 0.731 | 0.549 | 0.716 | 0.532 | 0.447
15 | 1 | 1.15 | 0.94 | CSSPTYRDCLQ [LARGE2_Y682_R677C] | 0.473 | 0.436 | 0.408 | 0.402 | 0.5 | 0.892 | 0.812 | 0.49 | 0.503 | 0.738 | 0.846 | 0.484 | 0.37
16 | 0.444 | 0.609 | 0.767 | CTNPRYLAAGS [RABL3_Y185] | 0.357 | 0.486 | 0.629 | 0.426 | 0.496 | 0.767 | 0.794 | 0.507 | 0.787 | 0.646 | 0.915 | 0.467 | 0.415
